# Laboratory results as given in US10874724B2, “Enzymatic immunomodulation of solid tumors and uses thereof” (University of Houston System, priority 2015, dated 2020).
# B1: mADA: recombinant purified mouse adenosine deaminase (protein, UniProt P03958 2-352, looked up)
# Adenosine deaminase: AQTPAFNKPKVELHVHLDGAIKPETILYFGKKRGIALPADTVEELRNIIGMDKPLSLPGFLAKFDYYMPVIAGCREAIKRIAYEFVEMKAKEGVVYVEVRYSPHLLANSKVDPMPWNQTEGDVTPDDVVDLVNQGLQEGEQAFGIKVRSILCCMRHQPSWSLEVLELCKKYNQKTVVAMDLAGDETIEGSSLFPGHVEAYEGAVKNGIHRTVHAGEVGSPEVVREAVDILKTERVGHGYHTIEDEALYNRLLKENMHFEVCPWSSYLTGAWDPKTTHAVVRFKNDKANYSLNTDDPLIFKSTLDTDYQMTKKDMGFTEEEFKRLNINAAKSSFLPEEEKKELLERLYREYQ
# B2: mADA-His: mADA with His tag expressed in HEK293F cells, purified with Ni-NTA column (protein, UniProt P03958 2-352, looked up)
# Adenosine deaminase: B1 Adenosine deaminase
# modifications: His tag
# B3: bADA: bovine adenosine deaminase; PEGylated bADA is FDA approved (protein, UniProt P56658 2-363, looked up)
# Adenosine deaminase: AQTPAFNKPKVELHVHLDGAIKPETILYYGRKRGIALPADTPEELQNIIGMDKPLSLPEFLAKFDYYMPAIAGCREAVKRIAYEFVEMKAKDGVVYVEVRYSPHLLANSKVEPIPWNQAEGDLTPDEVVSLVNQGLQEGERDFGVKVRSILCCMRHQPSWSSEVVELCKKYREQTVVAIDLAGDETIEGSSLFPGHVKAYAEAVKSGVHRTVHAGEVGSANVVKEAVDTLKTERLGHGYHTLEDATLYNRLRQENMHFEVCPWSSYLTGAWKPDTEHPVVRFKNDQVNYSLNTDDPLIFKSTLDTDYQMTKNEMGFTEEEFKRLNINAAKSSFLPEDEKKELLDLLYKAYGMPSPASAEQCL
# B4: ADA: Adenosine deaminase (EC 3.5.4.4), enzyme degrading Ado into inosine and ammonia (protein, UniProt P00813 2-363, looked up)
# Adenosine deaminase: AQTPAFDKPKVELHVHLDGSIKPETILYYGRRRGIALPANTAEGLLNVIGMDKPLTLPDFLAKFDYYMPAIAGCREAIKRIAYEFVEMKAKEGVVYVEVRYSPHLLANSKVEPIPWNQAEGDLTPDEVVALVGQGLQEGERDFGVKARSILCCMRHQPNWSPKVVELCKKYQQQTVVAIDLAGDETIPGSSLLPGHVQAYQEAVKSGIHRTVHAGEVGSAEVVKEAVDILKTERLGHGYHTLEDQALYNRLRQENMHFEICPWSSYLTGAWKPDTEHAVIRLKNDQANYSLNTDDPLIFKSTLDTDYQMTKRDMGFTEEEFKRLNINAAKSSFLPEDEKRELLDLLYKAYGMPPSASAGQNL
# Key:
# [1] = system: 4T1 cells; experiment: Wound healing assay; assay type: cell-based; settings: 10 μM Adenosine or 50 μM ADA or both; wound area at 48 hrs
# Description: Briefly, 4T1 cells were cultured to confluence in 35 mm dishes in triplicates. 12 hrs later cell were rinsed with PBS and starved in low serum media (1.5 ml; 0.5%-0.1% serum in RPMI) overnight. […] Pictures were taken immediately of the wound area in phase contrast and 10× and another at 48 hrs. Wound area was calculated using imagej and plotted.
# [2] = system: HT29 cells; experiment: Effect of cAdo on cell proliferation (WST 1); assay type: cell-based; settings: cAdo at 10 μM and above, WST 1 after 5 days
# Description: 10^4 cells were seeded in 96 well dish in 100 μl. 12 hrs later the cells were treated with […] and 50 μM of cAdo and the cells were later assayed for cell number quantitatively using WST 1 reagent after 5 days. Briefly 10 μl of WST1 reagent was added to each well. The cells were incubated for 4 hrs. OD was measured using microtiter plate reader at 460 nm.
# [3] = Stability of mADA enzymatic activity in cell culture medium; assay type: physicochemical; settings: culture medium of 4T1, MCF7 and T47D cells; supernatant after 24 h, 48 h and 72 h; even after 3 days
# Description: 4T1, MCF7 and T47D cells (1×10^5) were grown in 96 wells culture dish.
# [4] = Enzyme activity of mADA-His and mADA-Fc (Adenosine Deaminase Assay Kit); assay type: biochemical; settings: supernatant media of transfected HEK293F cells; OD at 550 nm
# Description: Enzyme activity of mADA-His and mADA-Fc was assayed with Adenosine Deaminase Assay Kit (BQ 014-EALD). Briefly the 180 μl of reagent 1 was added to 96-well plate. Followed by 5 μl of supernatant media obtained from HEK293F cells transfected with mADA-His or mADA-Fc. Later 90 μl of reagent was added to each well and incubated for 8 mins at 37° C. The OD was measured at 550 nm.
# [5] = intramuscular injection; cited from earlier work
molecule,measurement,setting,value
"Nc1ncnc2c1ncn2[C@@H]1O[C@H](CO)[C@@H](O)[C@H]1O [Ado, adenosine, reference compound]",Wound healing ability of 4T1 cells,[1],marginally promoted wound healing
"Nc1nc(Cl)nc2c1ncn2[C@@H]1O[C@H](CO)[C@@H](O)[C@H]1O [cAdo, 2-chloro Ado]",Rate of cell proliferation,[2],marginal increase
B1,ADA enzyme activity in cell culture medium,[3],retained its activity
B2,Enzyme activity in supernatant,[4],enzymatically active
B3,Toxicity,[5],not shown any toxicity
B4,Wound healing ability of 4T1 cells,[1],did not alter the wound healing ability
